The experiment concerns the target T1, Gonadotropin Releasing Hormone (GnRH) peptide (mammalian (same amino acid sequence in …, N-terminal pyroglutamic acid (pGlu))); C-terminal amide (GlyNH2)).
T1 construct: GnRH peptide bought from Peptides International; also called LHRH; Luteinizing Hormone Releasing Hormone
T1 peptide: EHWSYGLRPG
As to the kind of experiment: competition ELISA (Friguet method): supernatant pre-incubated overnight with free GnRH peptide, then GnRH-coated plate; nonlinear regression. The protocol: Supernatant was harvested […] after transfection and passed through a 0.2 μm syringe filter (Corning, Corning, N.Y.). Filtered supernatant was evaluated for total antibody expression and GnRH binding activity using protein A and GnRH ELISAs, respectively. Polystyrene ELISA plates (Corning) were coated overnight at room temperature with protein A (5 μg/mL, Sigma Aldrich, St Louis, Mo.) or GnRH peptide (1 μg/mL, Peptides International, Louisville, Ky.) in phosphate buffered saline. Plates were washed five times with PBS containing 0.05% tween 20 (Sigma), then blocked for one hour at room temperature with 1% bovine serum albumin in PBS. Filtered supernatant serially diluted two-fold in PBS was incubated in blocked wells for one hour. Plates were washed five times, then incubated for one hour with a biotinylated goat anti-human IgG1 antibody (Jackson ImmunoResearch, West Grove, Pa.) diluted 1:10,000 in blocking solution. Plates were then washed, incubated with streptavidin-HRP (Abcam, Cambridge, Mass.) diluted 1:30,000 in blocking solution for one hour, washed again, and developed with TMB substrate (Sigma). The reaction was stopped after 20 minutes by the addition of 2 N sulfuric acid. Absorbance was measured at […], with a reading at 540 nm subtracted as background. […] The fraction of antibody binding sites occupied by GnRH was calculated using the method of Stevens, 1987. […]

B1: chimeric anti-GnRH antibody (murine variable regions of hybridoma USASK/DSIL-LHRH-A1, ATCC HB-9094, fused with human IgG1 heavy chain and kappa light chain … (antibody, V domains shown)
VH: QIQLVQSGPELKKPGETVKISCKASGYPFTNYGMNWVKQAPGKGLKWMGWINTYTGEPACADDFRGRFAISLETSARTAYLQINNLINEDTATYFCARTGGGRYNYGMDYWGQGTSVTVSS
VL: QIVLTQSPAIMSASPGEKVTITCSATSSVSYIHWFQQKPGTSPKLWIYSTSNLASGVPVRFSGSGSGTSYSLTISRMEAEDAATYYCQQRSSYPPTFGGGTKLEIKR
notes: Full-length chimeric heavy and light chains: murine variable regions on human IgG1 and human kappa constant domains; Tested as filtered supernatant of transiently transfected 293 HEK cells; also called chimeric GnRH antibody; chimeric antibody
Consider B1, for which the affinity, expressed as Kd, was 3.9 nM.
